Molecular target: the molecule itself
Assay: cryo-EM structure

B1: bacteriophage 80α capsid protein gp47 (natural protein, Staphylococcus aureus bacteriophage 80α, UniProt A4ZFB3 15-324, looked up)
chain: ASNNVKPQVFNPDNVMMHEKKDGTLMNEFTTPILQEVMENSKIMQLGKYEPMEGTEKKFTFWADKPGAYWVGEGQKIETSKATWVNATMRAFKLGVILPVTKEFLNYTYSQFFEEMKPMIAEAFYKKFDEAGILNQGNNPFGKSIAQSIEKTNKVIKGDFTQDNIIDLEALLEDDELEANAFISKTQNRSLLRKIVDPETKERIYDRNSDSLDGLPVVNLKSSNLKRGELITGDFDKLIYGIPQLIEYKIDETAQLSTVKNEDGTPVNLFEQDMVALRATMHVALHIADDKAFAKLVPADKRTDSVPGEV
  stoichiometry N: 420 copies

Reference: paper PMC3017672 (Journal of molecular biology, 2010)
